# In patent US9688760B2, “Anti-leukocyte adhesion for the mitigation of potential adverse events caused by CD3-specific binding domains” (AMGEN RESEARCH (MUNICH) GMBH, priority 2013, dated 2017):
# B1: recombinant P-selectin: recombinant human P-selectin (#ADP3-050, R&D Systems) (protein)
# chain: WTYHYSTKAYSWNISRKYCQNRYTDLVAIQNKNEIDYLNKVLPYYSSYYWIGIRKNNKTWTWVGTKKALTNEAENWADNEPNNKRNNEDCVEIYIKSPSAPGKWNDEHCLKKKHALCYTASCQDMSCSKQGECLETIGNYTCSCYPGFYGPECEYVRECGELELPQHVLMNCSHPLGNFSFNSQCSFHCTDGYQVNGPSKLECLASGIWTNKPPQCLAAQCPPLKIPERGNMTCLHSAKAFQHQSSCSFSCEEGFALVGPEVVQCTASGVWTAPAPVCKAVQCQHLEAPSEGTMDCVHPLTAFAYGSSCKFECQPGYRVRGLDMLRCIDSGHWSAPLPTCEAISCEPLESPVHGSMDCSPSLRAFQYDTNCSFRCAEGFMLRGADIVRCDNLGQWTAPAPVCQALQCQDLPVPNEARVNCSHPFGAFRYQSVCSFTCNEGLLLVGASVLQCLATGNWNSVPPECQAIPCTPLLSPQNGTMTCVQPLGSSSYKSTCQFICDEGYSLSGPERLDCTRSGRWTDSPPMCEAIKCPELFAPEQGSLDCSDTRGEFNVGSTCHFSCDNGFKLEGPNNVECTTSGRWSATPPTCKGIASLPTPGVQCPALTTPGQGTMYCRHHPGTFGFNTTCYFGCNAGFTLIGDSTLSCRPSGQWTAVTPACRAVKCSELHVNKPIAMNCSNLWGNFSYGSICSFHCLEGQLLNGSAQTACQENGHWSTTVPTCQAGPLTIQEALTYFGGAVASTIGLIMGGTLLALLRKRFRQKDDGKCPLNPHSHLGTYGVFTNAAFDPSP
# Tested on: HBMEC
# Assay: In vitro flow chamber: T cell-rolling on HBMEC, long-term conditions
# Assay type: cell-based, human
# Conditions: non-stimulated HBMEC, 45 min
# Method: Human brain microvascular endothelial cells (HBMEC) (#1000, Sciencell Research Laboratories) or human umbilical vein endothelial cells (HUVEC) (#C-12200, Promocell) were used as endothelial cell-model. Cryopreserved HBMEC at passage 1 (>5×10^5 cells/ml) were first cultivated in fibronectin-coated Nunclon-treated 75 cm^2 cell culture flasks (#156499, Nunc) at 37° C. and 5% CO2 in a Heraeus Cytoperm 2 (Thermo Scientific) according to the manufacturer's instructions. Sub-cultivation of HBMEC was done with the Detach Kit (#C-41200, Promocell) consisting of HEPES-buffered balanced salt solution (#C-40000, Promocell), trypsin-EDTA solution (0.04%/0.03%) (#C-41000, Promocell) and trypsin neutralization solution (TNS, #C-41100, Promocell). Briefly, the medium was aspirated from the HBMEC-layer and cells were washed with 2 ml of HEPES-buffered balanced salt solution. Addition of 2 ml of trypsin-EDTA solution for 1-5 min at room temperature led to detachment of HBMEC from the flask bottom. Inactivation of trypsin-EDTA solution was performed by addition of 2 ml of trypsin neutralization solution to the cell suspension. Cells were centrifuged at 300 g for 4 min in a Heraeus Megafuge 40 (Thermo Scientific) and seeded at a cell density of 5×10^5 cells per gelatin-coated 75 cm^2 cell culture flask (#L7230, Biochrom). […]
molecule,measurement,setting,value
B1,mean T cell-rolling velocity±SD,"T cells pre-incubated with 5 μg/ml recombinant P-selectin, +AMG 103 10 ng/ml",402±93 μm/sec
same,mean T cell-rolling velocity±SD,"−AMG 103, +rec. P-selectin 5 μg/ml",384±70 μm/sec
